Test results taken from patent US20230287145A1 (Hoffmann-La Roche, published 2023).

Columns and labels:
FOLR1 CD3 TCB P035.093 [1] = target: T1, FOLR1 CD3 TCB P035.093; experiment: SPR, Biacore T200, 37 °C; FOLR1 CD3 TCB P035.093 captured on FOLR1-Fc (C1 chip), anti-idiotypic antibody 1.2-100 nM as analyte; 1:1 Langmuir fit; n=5; Stdev 0.5 nM
T1 construct: Classical 2+1 TCB, knob-into-hole, PGLALA; the common light chain pairs with each of the Fabs; also called FOLR1 TCB CD3: P035.093
Procedure: (§1) Briefly, FOLR1-Fc was immobilized on a series s sensor chip C1 using standard amine coupling chemistry according to the manufacturer's instructions. […] The first flow cell was kept as mock surface. […] Dissociation was monitored for 300 s, the flow rate was set to 30 μl/min. The surface was regenerated by injecting 10 mM Glycine pH 2.0 for 60 s, followed by injecting 5 mM NaOH for 60 s at a flow rate of 5 μl/min. Bulk refractive index differences were corrected by subtracting the response obtained from flow cell one (mock surface) as well as by substracting buffer injections (double referencing). The derived curves were fitted to a 1:1 Langmuir binding model using the BIAevaluation software (GE Healthcare). […] All experiments were performed at 37° C. using HBS-N (10 mM HEPES, 150 mM NaCl pH 7.4, 0.05% Surfactant P-20).

[2] = target: T2, biotinylated anti-human CD3 IgG (anti-CD3 P035.093) (biotinylated (site not stated)); experiment: SPR; biotinylated anti-CD3 P035.093 IgG on CAP chip, anti-idiotypic IgG at 1 µg/ml; response normalised to anti-human IgG surface and to the unstressed sample; after 14 d at 37 °C pH 7.4
T2 construct: IgG format of this reagent is not described further; immobilised on a CAP chip; also called CD3 IgG (P035.093)
Procedure: Therefore, they were analyzed for thermal stability and remaining target binding after 14 d stress conditions (40° C. at pH6.0 or 37° C. at pH7.4).
(§2) Flow cell 1 was kept as mock surface. […] Dissociation was monitored for 30 s, the flow rate was set to 5 μl/min. The CAP chip was regenerated by injecting a mix of NaOH and Guadinium-hydrochloride for 120 s, provided in the biotin capture kit. Bulk refractive index differences were corrected by subtracting the response obtained from flow cell 1 (mock surface).

[3] = target: T2, biotinylated anti-human CD3 IgG …; experiment: SPR; biotinylated anti-CD3 P035.093 IgG on CAP chip, anti-idiotypic IgG at 1 µg/ml; response normalised to anti-human IgG surface and to the unstressed sample; after 14 d at 40 °C pH 6.0
Procedure: as §2

FOLR1 CD3 TCB P035.093 [4] = target: T1, FOLR1 CD3 TCB P035.093; experiment: SPR, Biacore T200, 37 °C; FOLR1 CD3 TCB P035.093 captured on FOLR1-Fc (C1 chip), anti-idiotypic antibody as analyte; n=5; Stdev 198 s
Procedure: as §1

FOLR1 CD3 TCB P035.093 [5] = target: T1, FOLR1 CD3 TCB P035.093; experiment: SPR, Biacore T200, 37 °C; FOLR1 CD3 TCB P035.093 captured on FOLR1-Fc (C1 chip), anti-idiotypic antibody as analyte; n=5; Stdev 156 s
Procedure: as §1

FOLR1 CD3 TCB P035.093 [6] = target: T1, FOLR1 CD3 TCB P035.093; experiment: SPR, Biacore T200, 37 °C; FOLR1 CD3 TCB P035.093 captured on FOLR1-Fc (C1 chip), anti-idiotypic antibody 1.2-100 nM as analyte; 1:1 Langmuir fit; n=5; Stdev 1.0 nM
Procedure: as §1

FOLR1 CD3 TCB P035.093 [7] = target: T1, FOLR1 CD3 TCB P035.093; experiment: SPR, Biacore T200, 37 °C; FOLR1 CD3 TCB P035.093 captured on FOLR1-Fc (C1 chip), anti-idiotypic antibody as analyte; n=5; Stdev 222 s
Procedure: as §1

[8] = target: T3, Human CD3ε stalk-Fc(knob)-Avi/CD3δ stalk-Fc(hole) (human); experiment: SPR, biotinylated human CD3ε/δ on SA chip, TCB at 2 µg/ml; response normalised to anti-huIgG capture and referenced to the unstressed sample; after 2 weeks at pH 6.0/40 °C
T3 construct: Heterodimeric Fc fusion; also called human CD3ε/δ; Human CD3 epsilon stalk-Fc(knob)-Avi
Procedure: (§3) In order to assess the effect of the deamidation site removal and its effect on the stability of the antibodies, the optimized anti-CD3 antibodies (in TCB format) were incubated for 14 days at 37° C., pH 7.4 and at 40° C., pH 6 and further analyzed by SPR for their binding capability to human CD3ε/δ. Samples stored at −80° C. pH 6 were used as reference. The reference samples and the samples stressed at 40° C. were in 20 mM His, 140 mM NaCl, pH 6.0, and the samples stressed at 37° C. in PBS, pH 7.4, all at a concentration of 1.0 mg/ml. After the stress period (14 days) samples in PBS were dialyzed back to 20 mM His, 140 mM NaCl, pH 6.0 for further analysis.
(§4) All SPR experiments were performed on a Biacore T200 instrument (GE Healthcare) at 25° C. with HBS-P+ (10 mM HEPES, 150 mM NaCl pH 7.4, 0.05% Surfactant P20) as running and dilution buffer. Biotinylated human CD3ε/δ (see Example 3, SEQ ID NOs 41 and 42) as well as biotinylated anti-huIgG (Capture Select, Thermo Scientific, #7103262100) were immobilized on a Series S Sensor Chip SA (GE Healthcare, #29104992), resulting in surface densities of at least 1000 resonance units (RU). Anti-CD3 antibodies with a concentration of 2 μg/ml were injected for 30 s at a flow rate of 5 μl/min, and dissociation was monitored for 120 s. The surface was regenerated by injecting 10 mM glycine pH 1.5 for 60 s. Bulk refractive index differences were corrected by subtracting blank injections and by subtracting the response obtained from a blank control flow cell. For evaluation, the binding response 5 seconds after injection end was taken. To normalize the binding signal, the CD3 binding was divided by the anti-huIgG response (the signal (RU) obtained upon capture of the CD3 antibody on the immobilized anti-huIgG antibody). The relative binding activity was calculated by referencing each temperature stressed sample to the corresponding, non-stressed sample.

[9] = target: T3, Human CD3ε stalk-Fc(knob)-Avi/CD3δ …; experiment: SPR, TCB format, monovalent binding
Procedure: The experimental setup is schematically depicted in FIG. 3.
The dissociation was monitored for 800 s.
Kinetic constants were derived using the Biacore T200 Evaluation Software (GE Healthcare Life Sciences), to fit rate equations for 1:1 Langmuir binding by numerical integration. The half-life (t_{1/2}) of the interaction was calculated using the formula t_{1/2}=ln 2/koff.

[10] = target: T3, Human CD3ε stalk-Fc(knob)-Avi/CD3δ …; experiment: SPR, biotinylated human CD3ε/δ on SA chip, TCB at 2 µg/ml; response normalised to anti-huIgG capture and referenced to the unstressed sample; after 2 weeks at pH 7.4/37 °C
Procedure: as §3, §4

T2 sequence (VH, as listed by the source, chain 1 of 2): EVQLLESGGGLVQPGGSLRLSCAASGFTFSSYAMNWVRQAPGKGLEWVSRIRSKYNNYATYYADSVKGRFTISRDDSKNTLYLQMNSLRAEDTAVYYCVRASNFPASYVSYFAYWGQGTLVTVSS
T2 sequence (VL, as listed by the source, chain 2 of 2): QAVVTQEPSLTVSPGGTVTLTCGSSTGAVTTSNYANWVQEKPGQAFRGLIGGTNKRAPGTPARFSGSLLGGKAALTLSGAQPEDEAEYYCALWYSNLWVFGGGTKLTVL

Row | Kd (FOLR1 CD3 TCB P035.093 [1]) [nM] | Rel. active concentration [%] [2] [%] | Rel. active concentration [%] [3] [%] | t1/2 diss (FOLR1 CD3 TCB P035.093 [4]) [min] | t1/2 diss (FOLR1 CD3 TCB P035.093 [5]) [min] | Kd (FOLR1 CD3 TCB P035.093 [6]) [nM] | t1/2 diss (FOLR1 CD3 TCB P035.093 [7]) [min] | binding activity [%] [8] [%] | fold of binding half-life over CD3orig [9] [fold] | binding activity [%] [10] [%] | Binder
1 | 1.2 | 94 | 97 | 6.6 | – | – | – | – | – | – | Humanized variant H1L2 of anti-idiotypic antibody 4.24.72 (IgG) (antibody, V domains shown, Produced and purified as IgG; also called Mask humanization variant H1L2) VH: QVQLVQSGSELKKPGASVKVSCKASGYTVTDYSMNWVRQAPGQGLEWMGWINTETGEPRYTDDFKGRFVFSLDTSVSTAYLQISSLKAEDTAVYYCAREGDYDVFDYWGQGTLVTVSS VL: DIVMTQSPDSLAVSLGERATINCKSSKSVSTSSYSYMHWYQQKPGQPPKLLIKYVSYLESGVPDRFSGSGSGTDFTLTISSLQAEDVAVYYCQHSREFPYTFGQGTKLEIK
2 | – | 93 | 98 | – | 6.2 | 1.8 | – | – | – | – | Humanized variant H2L2 of anti-idiotypic antibody 4.24.72 (IgG) (antibody, V domains shown, Produced and purified as IgG; also called Mask humanization variant H2L2) VH: QVQLVQSGSELKKPGASVKVSCKASGYTVTDYSMNWVRQAPGQGLEWMGWINTETGEPRYTDDFTGRFVFSLDTSVSTAYLQISSLKAEDTAVYYCAREGDYDVFDYWGQGTLVTVSS VL: DIVMTQSPDSLAVSLGERATINCKSSKSVSTSSYSYMHWYQQKPGQPPKLLIKYVSYLESGVPDRFSGSGSGTDFTLTISSLQAEDVAVYYCQHSREFPYTFGQGTKLEIK
3 | 1.1 | 94 | 97 | – | – | – | 7.67 | – | – | – | Humanized variant H3L2 of anti-idiotypic antibody 4.24.72 (IgG) (antibody, V domains shown, Produced and purified as IgG; also called Mask humanization variant H3L2) VH: QVQLVQSGSELKKPGASVKVSCKASGYTVTDYSMNWVRQAPGQGLEWMGWINTETGEPRYTQGFKGRFVFSLDTSVSTAYLQISSLKAEDTAVYYCAREGDYDVFDYWGQGTLVTVSS VL: DIVMTQSPDSLAVSLGERATINCKSSKSVSTSSYSYMHWYQQKPGQPPKLLIKYVSYLESGVPDRFSGSGSGTDFTLTISSLQAEDVAVYYCQHSREFPYTFGQGTKLEIK
4 | – | – | – | – | – | – | – | 99 | ≤ 6 | 99 | TYRP1 TCB containing optimized anti-CD3 antibody clone P033.078 (bispecific antibody, human IgG1, kappa, L234A L235A, 2+1 IgG CrossFab, inverted, with charge modifications; knob-into-hole, P329G L234A L235A; also called CD3opt (P033.078); P033.078 in TCB format) heavy 1: not shown heavy 2: QVQLVQSGAEVKKPGASVKVSCKASGFNIKDYFLHWVRQAPGQGLEWMGWINPDNGNTVYAQKFQGRVTMTADTSTSTVYMELSSLRSEDTAVYYCTRRDYTYEKAALDYWGQGTLVTVSSASTKGPSVFPLAPSSKSTSGGTAALGCLVEDYFPEPVTVSWNSGALTSGVHTFPAVLQSSGLYSLSSVVTVPSSSLGTQTYICNVNHKPSNTKVDEKVEPKSCDKTHTCPPCPAPEAAGGPSVFLFPPKPKDTLMISRTPEVTCVVVDVSHEDPEVKFNWYVDGVEVHNAKTKPREEQYNSTYRVVSVLTVLHQDWLNGKEYKCKVSNKALGAPIEKTISKAKGQPREPQVCTLPPSRDELTKNQVSLSCAVKGFYPSDIAVEWESNGQPENNYKTTPPVLDSDGSFFLVSKLTVDKSRWQQGNVFSCSVMHEALHNHYTQKSLSLSP light 1: DIQMTQSPSSLSASVGDRVTITCRASGNIYNYLAWYQQKPGKVPKLLIYDAKTLADGVPSRFSGSGSGTDFTLTISSLQPEDVATYYCQHFWSLPFTFGQGTKLEIKRTVAAPSVFIFPPSDRKLKSGTASVVCLLNNFYPREAKVQWKVDNALQSGNSQESVTEQDSKDSTYSLSSTLTLSKADYEKHKVYACEVTHQGLSSPVTKSFNRGEC light 2: EVQLLESGGGLVQPGGSLRLSCAASGFTFESYAMNWVRQAPGKGLEWVSRIRSKYNEYATYYADSVKGRFTISRDDSKNTLYLQMNSLRAEDTAVYYCVRASNFPSSFVSYFGYWGQGTLVTVSSASVAAPSVFIFPPSDEQLKSGTASVVCLLNNFYPREAKVQWKVDNALQSGNSQESVTEQDSKDSTYSLSSTLTLSKADYEKHKVYACEVTHQGLSSPVTKSFNRGEC
